According to publication PMC5934441 (2018):

Legend:
[1] = molecular target: T1, recombinant ECTV CrmD (cytokine response modifier D), C-terminally tagged with V5 and 6xHis (ectromelia virus (ECTV)); test: SPR
[2] = molecular target: T1, recombinant ECTV CrmD (cytokine …); test: SPR; remark: listed apart in the source

B1: mouse Ccl27 (ligand)
chain: LPLPSSTSCCTQLYRQPLPSRLLRRIVHMELQEADGDCHLQAVVLHLARRSVCVHPQNRSLARWLERQGKRLQGTVPSLNLVLQKKMYSHPQQQN
In the case of B1, the koff [1] is reported as 0.00372 s⁻¹ and the Kd [2] is reported as 5.41 nM.
